Assay: Stability of TAFIa activity
Set-up: species or system human
Protocol: Pooled human plasma (30–40 mL) was diluted 10-fold with HBE buffer (10 mM HEPES, pH 7.4, 5 mM ε-aminocaproic acid). 5 mM of the reversible inhibitor ε-aminocaproic acid was added to maintain TAFIa stability during the isolation.
Thrombin, thrombomodulin and calcium chloride (final concentrations 5 nM, 2 nM and 5 mM, respectively) were added and the solution was shaken at room temperature for 30 min. The formation of serum was quenched with 10 μM FPRCK and centrifuged at 20,000×g for 30 min at 4° C. Unless otherwise mentioned, all isolation steps were performed at 4° C. The fibrin-free solution was loaded onto a heparin-sepharose column (2.5×3 cm) pre-equilibrated with HBE buffer.
In the presence of 5 mM ε-aminocaproic acid, TAFIa activity in serum reached a maximum at ˜5 min and was preserved >30 min at 37° C. Initial studies for formation of serum by simply adding thrombin and calcium only activated a limited amount of TAFI zymogen (<<0.5%) as determined with western blotting. Dilution of the plasma for serum preparation increased TAFI activation. A 4–5-fold increase in TAFI activation was observed if the plasma were diluted 10–20-fold. […] A maximal increase (30–35-fold) was obtained with 2 nM thrombomodulin, consistent with the fact that thrombomodulin is the cofactor for thrombin-mediated TAFI activation. […]

B1: TAFIa: activated thrombin-activatable fibrinolysis inhibitor, a basic carboxypeptidase purified from serum (protein)
chain: ASASYYEQYHSLNEIYSWIEFITERHPDMLTKIHIGSSFEKYPLYVLKVSGKEQAAKNAIWIDCGIHAREWISPAFCLWFIGHITQFYGIIGQYTNLLRLVDFYVMPVVNVDGYDYSWKKNRMWRKNRSFYANNHCIGTDLNRNFASKHWCEEGASSSSCSETYCGLYPESEPEVKAVASFLRRNINQIKAYISMHSYSQHIVFPYSYTRSKSKDHEELSLVASEAVRAIEKISKNTRYTHGHGSETLYLAPGGGDDWIYDLGIKYSFTIELRDTGTYGFLLPERYIKPTCREAFAAVSKIAWHVIRNV
4° C., ε-aminocaproic acid present during isolation
  time TAFIa activity was maintained: more than 3 days
37° C., in the presence of 5 mM ε-aminocaproic acid
  time TAFIa activity in serum was preserved: > 30 min
